# Measurements as given in the nanobody polyreactivity screen of Harvey et al. (2022).
# Assay: yeast display, Sf9 membrane polyspecificity reagent, FACS + sequencing; frameworks hold sequencing errors
# Method in brief: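 Using colony PCR, genes from sorted yeast display clones were amplified, then sequenced on MiSeq at 2 × 250 and filtered by CDR length. The clones had been stained with 10% biotinylated, detergent-solubilized Sf9 membrane reagent for 1 hour at 4 °C and sorted by FACS into low and high (top ~1%) gates on anti-HA and streptavidin fluorescence. Polyreactivity labels come from the gate of origin.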
row,Sequence,polyreactivity (PSR sort gate)
1,QVQLVESGGGLVQAGGSLRLSCAASGSIFLIYDMGWYRQAPGKEMELVAAISNSVGSTYADSVKGRFTISRDNAKNTVYLQINSLKPEDTAVYYCNADSGPIDGRGGYWGQGTQVTVSS,low polyreactivity
2,QVQLVESGGGLVQAGGSLRLSCAASGSIFLKYAMGWYRQAPGKERELVAAISSRGGSTYYADSVKGRFTISRDNAKNTVYLQMNSLKPEDTAVYYCAAKRWPGTDGYWGQGTQVTVSS,high polyreactivity
3,QVQLVESGGGLVQAGGSLRLSCAASGSIFLNYAMGWYRQAPGNERELVAGISNGGSTNYADSVKGRFTISRDNAKNTVYLQMNSLKPEDTAVYYCARPAYKSRGKRFDYLGQGTQVTVSS,low polyreactivity
4,QVQLVESGGGLVQAGGSLRLSCAASGSIFLPYAMGWYRQAPGKEREFVAAIRWSTGRTFYADSVKGRFTISRDNAKNTVYLQMNSLKPEDTAVYYCAAVWPDVRGYDYWGQGTQVTVSS,high polyreactivity
5,QVQLVESGGGLVQAGGSLRLSCAASGSIFLRYAMGWYRQAPGKERELVAAITSSGGSTYYADSVKGRFTISRDNAKNTLYLQMNSLKPEDTAVYYCNRYSYLFPYYWKYDYWGQGTQVTVSS,high polyreactivity
6,QVQLVESGGGLVQAGGSLRLSCAASGSIFLSNAMGWYRQAPGKERELVAAISRRGASTYYADSVKGRFTISRDNAKNTVYLQMNSLKPEDTAVYYCAARSYSAYGYNYWGQGTQVTVSS,high polyreactivity
7,QVQLVESGGGLVQAGGSLRLSCAASGSIFLSNAMVWYRQAPGKERDLVADIDWTGGDTYYADSVKGRFTISRDNAKNTVYLQMNSLKPEDTAVYYCAADYGSRNLLTEYGYWGQGTQVTVSS,low polyreactivity
8,QVQLVESGGGLVQAGGSLRLSCAASGSIFLSNMGWYRQAPGKERELVAAISRNGGSTYYADSVKGRFTISRDNAKYSVYLQMNSLKPEDTAVYYCAVQRYWGQGTQVTVSS,high polyreactivity
9,QVQLVESGGGLVQAGGSLRLSCAASGSIFLTYAMGWYRQAPGKERELVAAITDSDGSTSYADSVKGRFTISRDNAKNTVYLQMNSLKPEDTAVYYCAKDFPGRRPPKDPSAFYYWGQGTQVTVSS,low polyreactivity
10,QVQLVESGGGLVQAGGSLRLSCAASGSIFLVYAMGWYRQAPGKERELVAVITKSGGSTYYADSVKGRFTISRDNAKNTVYLQMNSLKPEDTAVYYCAARRRGARHDYWGQGTQVTVSS,high polyreactivity
11,QVQLVESGGGLVQAGGSLRLSCAASGSIFLWNAMGWYRQAPGKEREFVASITSRGGSTYYADSVKGRFTISRDNAKNTVYLQMNSLKPEDTAVYYCAAVRSKYWYYQGGYSSYGYWGQGTQVTVSS,high polyreactivity
12,QVQLVESGGGLVQAGGSLRLSCAASGSIFLWNAMGWYRQAPGKERELVAAISSGTSTNYADSVKGRFTISRDNANNTVYLQMNSLKPEDTAVYYCAARGRKNQRRYGYWGQGTQVTVSS,low polyreactivity
13,QVQLVESGGGLVQAGGSLRLSCAASGSIFLYNAMGWYRQAPGKERELVAAISKSGGSTYYADSVKGRFTISRDNAKNTVYLQMNSLIPEDTAVYYCAAGYCRRIRYGSEYDYWGQGTQVTVSS,low polyreactivity
14,QVQLVESGGGLVQAGGSLRLSCAASGSIFLYNAMGWYRQAPGKERELVATITYIGGRTYYADSVKGRFTISRDNAKNTVYLQMNSLKPEDTAVYYCAAEYYVISSPSFYEYDYWGQGTQVTVSS,low polyreactivity
15,QVQLVESGGGLVQAGGSLRLSCAASGSIFNANAMGWYRQAPGKERELVARITRGGRTNYADSVKGRFTISLDNAKNSVYLQMNSLKPEDTAVYYCAAVYYVGFPHKYDYWGQGTQVTVSS,low polyreactivity
16,QVQLVESGGGLVQAGGSLRLSCAASGSIFNAYAMGWYRQAPGKERELVAAISKRTSYADSVKGRFTISRDNAKNTVYLQMNSLKPEDTAVYYCANEVDEPDGYEYDYWGQGTQVTVSS,low polyreactivity
17,QVQLVESGGGLVQAGGSLRLSCAASGSIFNGYDMGWYRQAPGKERELVAAISLSGDSTYYADSVKGRFTISRDNAKNTVYLQMNSLKPEDTAVYYCAAADYFRSYWGQGTQVTVSS,low polyreactivity
18,QVQLVESGGGLVQAGGSLRLSCAASGSIFNGYVMGWYRQAPGKERELVASINRGGTTNYADSVKGRFTISRDNAKNTVYFQMNSLKPEDTAVYYCAVDDDANSLGGYYVLFDYWGQGTQVTVSS,low polyreactivity
19,QVQLVESGGGLVQAGGSLRLSCAASGSIFNKYAMGWYRQAPGKEREFVAAITQGGGRTYYADSVKGRFTISRDNAKNTVYLQMNSLKPEDTAVYYCNAAVYSRARGSYRRRYDYWGQGTQVTVSS,high polyreactivity
20,QVQLVESGGGLVQAGGSLRLSCAASGSIFNKYAMGWYRQAPGKERELVAAISVSGTRTYYADTVKGRFTISRDNAKNTVYLQMNSLKPEDTAVYYCATKFFRTAYESWGQGTQVTVSS,high polyreactivity
21,QVQLVESGGGLVQAGGSLRLSCAASGSIFNPYTMGWYRQAPGKERELVAAISASGGSTYYADSVKGRFTISRDNAKYTVYLQMNCLKPEDTAVYYCNVYRITRHSYNFGFDYWGQGTQVTVSS,low polyreactivity
22,QVQLVESGGGLVQAGGSLRLSCAASGSIFNRNVMGWYRQAPGKERELVAAITWSGASTYYADSVKGRFTISRDNAKNTVYLQMNSLKPEDTAVYYCAARGPSRRRDGSDYWGQGTQVTVSS,high polyreactivity

row,Sequence,polyreactivity (PSR sort gate)
1,QVQLVESGGGLVQAGGSLRLSCAASGSIFNRYAMGWSRQAPGKARELVPAISRRGAGTYYADSVKGRFTISRDNAKHTVYLQMNSLKPDDTAVYYCAAAGYFPTAGSRRAYYYCGQGTQVTVSS,high polyreactivity
2,QVQLVESGGGLVQAGGSLRLSCAASGSIFNRYAMGWYRQAPGKEREFVARISKRGGGTYYADSVKGRFTISRDNAKNTVYLQMNSLKPEDTAGYYCNAGVPSAMDYWGQGTQVTVSS,high polyreactivity
3,QVQLVESGGGLVQAGGSLRLSCAASGSIFNRYTMGWYRPAHGKQRELVAAISRGGITYYADSVKGRFTISRDNAMNTVYLQMNSLKPEDSAVYYCAADGFTRWGRYDYWGQGTQVTVSS,high polyreactivity
4,QVQLVESGGGLVQAGGSLRLSCAASGSIFNRYTMGWYRQAPGKEREFVAAIRNSGSRTYYADSVKRRFTISRDNAKNTVYLQMNSLKPEDTAVYYCAADGPLNSSESYYWGQGTQVTVSS,low polyreactivity
5,QVQLVESGGGLVQAGGSLRLSCAASGSIFNSNAMGWYRQAPGKERELVAVISWSDGSTRYADSVKGRFTISRDNAKNTVYLQMNSLKPEDTAVYYCNADLVYYYRQEVDYWGQGTEVTVSS,low polyreactivity
6,QVQLVESGGGLVQAGGSLRLSCAASGSIFNSNAMGWYRQAPGTERELDAGISNIGGSTYYADSVKGRFTISRDYAKNTVYLQMNSLKPEDTAVYFCNADRLQPNRYYYWGQGTQVTVSS,high polyreactivity
7,QVQLVESGGGLVQAGGSLRLSCAASGSIFNSYAMGWYIQAPGKERELFADITSSGGSTYYADSVKGRFTISRDNAKNTVYLQMNCLKPEDTAVYYCAASSPAFYGLRYNYWGQGTQVTVSS,low polyreactivity
8,QVQLVESGGGLVQAGGSLRLSCAASGSIFNTYAMGWYRQAPGKEREFVASISRSGGSTRYADSVKGRFTISRDNAKNTVYLQMNSLKPEDTAVYYCAARVPRGHVTYDYWGQGTQVTVSS,high polyreactivity
9,QVQLVESGGGLVQAGGSLRLSCAASGSIFNVYVMGWYRQAPGKERELVASITWTTGSTYADSVKGRFTISRDNAKNTVYLQMNSLKPEDTAVYYCNAEFPEDTSDDYWGQGTQVTVSS,low polyreactivity
10,QVQLVESGGGLVQAGGSLRLSCAASGSIFNWYAMGWYIQAPGKERELVAAISSSGSTNYADSVKGRFTISRDNAKNTVYLQMNSLKPEDTEVYYCNADEYYLNNYNYGYWGQGTQVTVSS,low polyreactivity
11,QVQLVESGGGLVQAGGSLRLSCAASGSIFNWYAMGWYRKAPGKERELVAAIRSGGNTKYADSVKGRFTISRDNAKNTVYLQMTSLKPEDTAVYYCAAGVYHRRLEYYYWGQGSQVTVSS,low polyreactivity
12,QVQLVESGGGLVQAGGSLRLSCAASGSIFNYNAMGWYRQAPGKERELVAAISSGGSTNYADSVKGRFTISRDNAKNTVYLQMNSLKPEDTAVYYCAKRGKQYRKMNYWGQGTQVTVSS,high polyreactivity
13,QVQLVESGGGLVQAGGSLRLSCAASGSIFNYNDMGWYRQAPGKERELVAAIDSSGTSTYYADSVKGRFTISRDNAKNTVYLQMNSLKPEDTAVYYCNADSSLGFGYWGQGTQVTVSS,low polyreactivity
14,QVQLVESGGGLVQAGGSLRLSCAASGSIFNYYAMGWYRQAPGKERELVAAITTSGGRTYYADSVKGRFTISRDNAKNTVYLQMNSLKPEDTAVYYCAARGYGRRAYVYRYDYWGQGTQVTVSS,high polyreactivity
15,QVQLVESGGGLVQAGGSLRLSCAASGSIFNYYDMGWYRQAPGKERELVAAIDLTGGTTYYADSVKGRFTISRDNAKNTVYLQMNSLKPEDTAVYYCAAQYIRSSWWGYDYWGQGTQVTVSS,low polyreactivity
16,QVQLVESGGGLVQAGGSLRLSCAASGSIFPAYAMGWYRQAPGKERELVAAITFSGGRTYYADSVKGRFTISRDNAKNTVYLQMNSLKPEDTAVYYCAAYGAPSGTGAKYGYWGQGTQVTVSS,low polyreactivity
17,QVQLVESGGGLVQAGGSLRLSCAASGSIFPAYAMGWYRQAPGKERELVAAITRGGRTNYADSVKGRFTISRDNAKNSVYLQMNSLKPEDTAVYYCAKAVQGKYGYWGQGTQVTVSS,high polyreactivity
18,QVQLVESGGGLVQAGGSLRLSCAASGSIFPDNAMGWYRQAPGKERELVAAISLSGGRTYYADSVKGRFTISRDNAKNTVYLQMNSLKPEDTAVYYCAAKQRPKSYGPGHYYWGQGTQVTVSS,high polyreactivity
19,QVQLVESGGGLVQAGGSLRLSCAASGSIFPDYAMGWYRQAPGKERELVAAITWRDDSSYYADSVKGRFTISRDNAKNTVYLQMNSLKPEDTAVYYCNASALDPLYAKDDYWGQGTQVTVSS,low polyreactivity
20,QVQLVESGGGLVQAGGSLRLSCAASGSIFPFYAMGWYRQAPGKERELVAAISYSGGRTYYADSVKGRFTISRDNAKNTVYLQMNSLKPEDTAVYYCAVDSGQKRRDYWGQGTQVTVSS,high polyreactivity
21,QVQLVESGGGLVQAGGSLRLSCAASGSIFPGYAMGWSRPAPGKERELVAAISRDGSTNYADSVKGRFTISRDNAKITVYLQMNSLKPEDTAVYYCARRNPLGGNEHDYWGQGTQVTVSS,low polyreactivity
